Test system: Escherichia coli TOP10
Assay: shrunken log2 fold change of peptide-encoding DNA abundance (4.5 h post-induction vs induction); higher = less antimicrobial activity (less host growth inhibition)
Settings: time post-induction: 4.5 h; library: site-saturation at positions 5, 18, 19, 20
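Note: peptides expressed intracellularly from a pBAD plasmid library in pooled LB shake-flask culture, induced with 0.3% L-arabinose, DNA abundance read by NGS, three biological replicates, DESeq2 with apeglm shrinkage.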

Sequence | shrunken log2 fold change
RRIRERPPRLPRPRPRPCKDPRP | -0.117
RRIRERPPRLPRPRPRPHAMPRP | 0.0454
RRIRDRPPRLPRPRPRPWAGPRP | 0.0503
RRIRQRPPRLPRPRPRPAQWPRP | 0.166
RRIRQRPPRLPRPRPRPWKHPRP | -0.0075
RRIRERPPRLPRPRPRPLMAPRP | -0.169
RRIRSRPPRLPRPRPRPSCAPRP | 0.0589
RRIRHRPPRLPRPRPRPKHYPRP | -0.577
RRIRKRPPRLPRPRPRPLPTPRP | 0.491
RRIRNRPPRLPRPRPRPDSYPRP | -0.054
RRIRHRPPRLPRPRPRPLAIPRP | -0.346
RRIRERPPRLPRPRPRPRFCPRP | -0.0399
RRIRVRPPRLPRPRPRPAHQPRP | 0.317
RRIRHRPPRLPRPRPRPVYVPRP | -0.158
RRIRERPPRLPRPRPRPGIRPRP | -0.0819
RRIRGRPPRLPRPRPRPIVDPRP | 0.0357
RRIRKRPPRLPRPRPRPFSEPRP | -0.0185
RRIRFRPPRLPRPRPRPNKEPRP | 0.0307
RRIRFRPPRLPRPRPRPGIDPRP | -0.0216
RRIRMRPPRLPRPRPRPGSSPRP | 0.198
RRIRRRPPRLPRPRPRPQWVPRP | 0.279
RRIRERPPRLPRPRPRPDRDPRP | -0.0369
RRIRRRPPRLPRPRPRPRPNPRP | 0.624
RRIRERPPRLPRPRPRPIAEPRP | 0.255
RRIRPRPPRLPRPRPRPRQTPRP | 0.338

Sequence | shrunken log2 fold change
RRIRQRPPRLPRPRPRPHARPRP | -0.00608
RRIRLRPPRLPRPRPRPAECPRP | -0.167
RRIRVRPPRLPRPRPRPDGQPRP | -0.0901
RRIRMRPPRLPRPRPRPNETPRP | -0.0123
RRIRPRPPRLPRPRPRPLDRPRP | -0.000978
RRIRGRPPRLPRPRPRPRAYPRP | 0.338
RRIRSRPPRLPRPRPRPPTQPRP | 0.356
RRIRDRPPRLPRPRPRPTWWPRP | 0.433
RRIRWRPPRLPRPRPRPVGEPRP | 1.01
RRIRKRPPRLPRPRPRPDNRPRP | 0.00592
RRIRQRPPRLPRPRPRPLVAPRP | 0.034
RRIRFRPPRLPRPRPRPLWKPRP | -0.0606
RRIRDRPPRLPRPRPRPHAWPRP | 0.1
RRIRLRPPRLPRPRPRPTGSPRP | -0.0138
RRIRMRPPRLPRPRPRPTFEPRP | -0.0436
RRIRVRPPRLPRPRPRPNALPRP | -0.379
RRIRTRPPRLPRPRPRPSHGPRP | 0.0388
RRIRARPPRLPRPRPRPKHRPRP | 0.556
RRIRNRPPRLPRPRPRPCPVPRP | -0.438
RRIRDRPPRLPRPRPRPCHKPRP | -0.00188
RRIRPRPPRLPRPRPRPNGMPRP | 0.171
RRIRDRPPRLPRPRPRPEHQPRP | -0.012
RRIRNRPPRLPRPRPRPVRDPRP | 0.177
RRIRIRPPRLPRPRPRPAHTPRP | -0.588
RRIRERPPRLPRPRPRPMGWPRP | -0.218

Sequence | shrunken log2 fold change
RRIRPRPPRLPRPRPRPEYKPRP | -0.293
RRIRLRPPRLPRPRPRPKNFPRP | 0.492
RRIRKRPPRLPRPRPRPIEVPRP | 0.287
RRIRTRPPRLPRPRPRPTSEPRP | -0.126
RRIRVRPPRLPRPRPRPFFFPRP | 0.151
RRIRRRPPRLPRPRPRPSTVPRP | -0.117
RRIRVRPPRLPRPRPRPIVAPRP | -0.00399
RRIRNRPPRLPRPRPRPCKKPRP | -0.0371
RRIRTRPPRLPRPRPRPIKDPRP | -0.104
RRIRRRPPRLPRPRPRPQRWPRP | -0.0703
RRIRRRPPRLPRPRPRPVSNPRP | -0.111
RRIRSRPPRLPRPRPRPKPWPRP | 0.463
RRIRDRPPRLPRPRPRPLQSPRP | -0.015
RRIRMRPPRLPRPRPRPIICPRP | -0.00127
RRIRKRPPRLPRPRPRPAMLPRP | 0.292
RRIRARPPRLPRPRPRPNILPRP | -0.00643
RRIRRRPPRLPRPRPRPCGIPRP | 0.506
RRIRIRPPRLPRPRPRPCTYPRP | -0.0592
RRIRIRPPRLPRPRPRPDLGPRP | -0.0274
RRIRWRPPRLPRPRPRPGYHPRP | -0.263
RRIRRRPPRLPRPRPRPSCVPRP | 0.259
RRIRVRPPRLPRPRPRPQRGPRP | 0.198
RRIRGRPPRLPRPRPRPFKYPRP | -0.221
RRIRDRPPRLPRPRPRPLHLPRP | -0.0348
RRIRQRPPRLPRPRPRPKLAPRP | -0.0518

Sequence | shrunken log2 fold change
RRIRFRPPRLPRPRPRPYSIPRP | -0.186
RRIRERPPRLPRPRPRPRYDPRP | -0.246
RRIRSRPPRLPRPRPRPWVIPRP | -0.201
RRIRIRPPRLPRPRPRPREKPRP | 0.111
RRIRNRPPRLPRPRPRPNHEPRP | -0.00884
RRIRVRPPRLPRPRPRPYVAPRP | -0.643
RRIRHRPPRLPRPRPRPYPMPRP | -0.2
RRIRSRPPRLPRPRPRPVRMPRP | 0.0776
RRIRQRPPRLPRPRPRPGFDPRP | 2.69
RRIRGRPPRLPRPRPRPEKPPRP | 0.316
RRIRMRPPRLPRPRPRPFKHPRP | -0.306
RRIRKRPPRLPRPRPRPHIDPRP | 0.0232
RRIRNRPPRLPRPRPRPLQFPRP | 0.0375
RRIRVRPPRLPRPRPRPSYVPRP | -0.66
RRIRSRPPRLPRPRPRPMEVPRP | -0.00803
RRIRSRPPRLPRPRPRPCAYPRP | -0.431
RRIRVRPPRLPRPRPRPIYPPRP | -0.413
RRIRNRPPRLPRPRPRPHLPPRP | 0.0211
RRIRRRPPRLPRPRPRPNQVPRP | 0.12
RRIRERPPRLPRPRPRPLEQPRP | -0.0811
RRIRDRPPRLPRPRPRPDLIPRP | 0.126
RRIRMRPPRLPRPRPRPPPRPRP | 2.36
RRIRARPPRLPRPRPRPRRTPRP | 0.577
RRIRTRPPRLPRPRPRPRAVPRP | 0.617
RRIRFRPPRLPRPRPRPAPNPRP | 0.408

Sequence | shrunken log2 fold change
RRIRKRPPRLPRPRPRPVDEPRP | 0.358
RRIRGRPPRLPRPRPRPCFGPRP | 0.262
RRIRVRPPRLPRPRPRPKMTPRP | -0.0628
RRIRGRPPRLPRPRPRPSMFPRP | 0.554
RRIRTRPPRLPRPRPRPTLYPRP | -0.102
RRIRMRPPRLPRPRPRPLILPRP | -0.429
RRIRHRPPRLPRPRPRPKRAPRP | 0.0906
RRIRNRPPRLPRPRPRPVMEPRP | -0.173
RRIRARPPRLPRPRPRPSEPPRP | 0.11
RRIRGRPPRLPRPRPRPNAIPRP | 0.668
RRIRFRPPRLPRPRPRPAHWPRP | 0.539
RRIRVRPPRLPRPRPRPPTTPRP | 0.47
RRIRDRPPRLPRPRPRPISAPRP | 0.0787
RRIRNRPPRLPRPRPRPESHPRP | -0.0363
RRIRDRPPRLPRPRPRPICDPRP | 0.137
RRIRARPPRLPRPRPRPSNIPRP | -0.447
RRIRCRPPRLPRPRPRPMTQPRP | -0.188
RRIRPRPPRLPRPRPRPSVDPRP | -0.187
RRIRFRPPRLPRPRPRPYARPRP | 0.0368
RRIRERPPRLPRPRPRPKTRPRP | -0.0349
RRIRHRPPRLPRPRPRPRNHPRP | -0.481
RRIRPRPPRLPRPRPRPPWLPRP | 0.57
RRIRDRPPRLPRPRPRPGDNPRP | 2.29
RRIRTRPPRLPRPRPRPTYYPRP | -0.359
RRIRYRPPRLPRPRPRPKCTPRP | -0.0162
